# Publication doi:10.1101/407197
# Like-named read-outs stand apart in the source and are kept apart here.
# Columns and labels:
# MIWI [1] = target: T1, MIWI (mouse, UniProt Q9JMB7 1-862); experiment: EMSA
# MIWI [2] = target: T1, MIWI; experiment: EMSA; remark: listed apart in the source
# T1 sequence (Q9JMB7 whole entry): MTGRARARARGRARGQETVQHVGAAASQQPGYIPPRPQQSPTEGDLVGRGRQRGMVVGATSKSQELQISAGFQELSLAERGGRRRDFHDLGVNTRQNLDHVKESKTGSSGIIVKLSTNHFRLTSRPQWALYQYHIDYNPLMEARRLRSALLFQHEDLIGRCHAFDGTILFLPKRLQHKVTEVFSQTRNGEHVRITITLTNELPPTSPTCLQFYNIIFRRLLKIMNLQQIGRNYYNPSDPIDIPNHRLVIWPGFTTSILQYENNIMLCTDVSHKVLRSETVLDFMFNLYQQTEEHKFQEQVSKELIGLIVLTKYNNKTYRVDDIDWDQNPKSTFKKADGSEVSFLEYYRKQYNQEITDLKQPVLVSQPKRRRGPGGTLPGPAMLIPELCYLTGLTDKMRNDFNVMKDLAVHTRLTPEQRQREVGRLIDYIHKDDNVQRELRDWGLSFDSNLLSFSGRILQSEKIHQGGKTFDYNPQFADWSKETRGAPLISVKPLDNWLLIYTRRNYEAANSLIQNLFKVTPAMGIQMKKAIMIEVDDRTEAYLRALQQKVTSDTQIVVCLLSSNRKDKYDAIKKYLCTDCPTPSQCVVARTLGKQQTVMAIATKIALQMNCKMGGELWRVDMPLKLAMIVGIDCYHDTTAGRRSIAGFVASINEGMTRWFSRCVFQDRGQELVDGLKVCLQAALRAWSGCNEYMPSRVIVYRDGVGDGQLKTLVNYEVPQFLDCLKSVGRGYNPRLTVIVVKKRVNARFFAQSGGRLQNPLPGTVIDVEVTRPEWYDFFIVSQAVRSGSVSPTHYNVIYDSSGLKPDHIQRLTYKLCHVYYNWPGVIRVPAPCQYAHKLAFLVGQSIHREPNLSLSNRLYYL
Binder,binding result (MIWI [1]),binding result (MIWI [2])
UGACAUGAACACAGGUGCUCAGAUAGCUUU (ssRNA) [piR1],binds,
CCUCAUGAAGAAGAGGAGGAGGA (ssRNA) [Ssty RNA oligonucleotide (putative piRNA)],,binds
CAGUUAAAGAAAUGCAUGAGAA (ssRNA) [Sly RNA oligonucleotide (putative piRNA)],,binds
